The results in this text go back to paper PMC4259812 (The Journal of Cell Biology, 2014).

The target in the assay is T1, human raver1 RRM1-3 domains (residues 39-321) (human, UniProt Q8IY67 39-321).
T1 sequence: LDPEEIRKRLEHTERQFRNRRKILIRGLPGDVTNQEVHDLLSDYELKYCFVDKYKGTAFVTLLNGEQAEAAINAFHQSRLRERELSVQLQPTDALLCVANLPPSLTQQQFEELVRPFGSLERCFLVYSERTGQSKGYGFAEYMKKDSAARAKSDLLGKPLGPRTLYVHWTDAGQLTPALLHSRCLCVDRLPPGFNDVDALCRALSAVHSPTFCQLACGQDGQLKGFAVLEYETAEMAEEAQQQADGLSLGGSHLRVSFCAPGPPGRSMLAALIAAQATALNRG
Description: SEC.

B1: human vinculin tail domain (Vt), wild type, residues 891-1,066 (domain or fragment)
chain: GEVINQPMMMAARQLHDEARKWSSKGNDIIAAAKRMALLMAEMSRLVRGGSGTKRALIQCAKDIAKASDEVTRLAKEVAKQCTDKRIRTNLLQVCERIPTISTQLKILSTVKATMLGRTNISDEESEQATEMLVHNAQNLMQSVKETVREAEAASIKIRTDAGFTLRWVRKTPWYQ
Regarding B1, the binding result is “binds”.
